For one data set, the target named is T1, MGG tripeptide.
T1 chain: MGG

The target of the next data set is T2, MEG tripeptide.
T2 chain: MEG

The target of the next data set is T3, IGG tripeptide.
T3 chain: IGG

For another data set, the target named is T4, GGG tripeptide.
T4 chain: GGG

Data set [1] concerns the target T5, MAS tripeptide (Met-Ala-Ser).
T5 chain: MAS

From US20030203406 come the findings set out here.

The Km is the concentration of substrate that gives half-maximal velocity. Broadly, the kcat is the maximal rate divided by the concentration of active sites.

B1: recombinant human MetAP-3 purified from E. coli after thrombin cleavage of the NusA-6xHis tag (protein)
chain: SSPLNHIYLHKQSSSQQRRNFFFRRQRDISHSIVLPAAVSSAHPVPKHIKKPDYVTTGIVPDWGDSIEVKNEDQIQGLHQACQLARHVLLLAGKSLKVDMTTEEIDALVHREIISHNAYPSPLGYGGFPKSVCTSVNNVLCHGIPDSRPLQDGDIINIDVTVYYNGYHGDTSETFLVGNVDECGKKLVEVARRCRDEAIAACRAGAPFSVIGNTISHITHQNGFQVCPHFVGHGIGSYFHGHPEIWHHANDSDLPMEEGMAFTIEPIITEGSPEFKVLEDAWTVVSLDNQRSAQFEHTVLITSRGAQILTKLPHEA
For B1, the Cleaved entry is reported as “Yes” with MGG tripeptide; “No” in the data set with MEG tripeptide; “No” in the data set with IGG tripeptide; “No” with GGG tripeptide; “Yes” in data set [1]. Also, the Vmax (Abs × 1000/min) (Abs × 1000/min) was 134 in the data set with MGG tripeptide; 1.1 with MEG tripeptide; 3.1 with IGG tripeptide; 0.7 with GGG tripeptide; 70 in data set [1]. In addition, the Km in data set [1] came to 600 µM. Besides, the kcat in data set [1] was 0.06 s⁻¹.

B2: recombinant human MetAP-2 expressed in Sf9 insect cells (protein)
chain: AGVEEVAASGSHLNGDLDPDDREEGAASTAEEAAKKKRRKKKKSKGPSAAGEQEPDKESGASVDEVARQLERSALEDKERDEDDEDGDGDGDGATGKKKKKKKKKRGPKVQTDPPSVPICDLYPNGVFPKGQECEYPPTQDGRTAAWRTTSEEKKALDQASEEIWNDFREAAEAHRQVRKYVMSWIKPGMTMIEICEKLEDCSRKLIKENGLNAGLAFPTGCSLNNCAAHYTPNAGDTTVLQYDDICKIDFGTHISGRIIDCAFTVTFNPKYDTLLKAVKDATNTGIKCAGIDVRLCDVGEAIQEVMESYEVEIDGKTYQVKPIRNLNGHSIGQYRIHAGKTVPIVKGGEATRMEEGEVYAIETFGSTGKGVVHDDMECSHYMKNFDVGHVPIRLPRTKHLLNVINENFGTLAFCRRWLDRLGESKYLMALKNLCDLGIVDPYPPLCDIKGSYTAQFEHTILLRPTCKEVVSRGDDY
As to B2, in data set [1], the Km was determined as 300 µM and the kcat worked out at 2.3 s⁻¹.
